Key:
HPLC-RI of products [1] = substrate: Nc1ncnc2c1ncn2[C@@H]1O[C@H](COP(=O)(O)OP(=O)(O)OP(=O)(O)O)[C@@H](O)[C@H]1O; assay: HPLC-RI of products; assay type: biochemical, Ruminiclostridium cellulolyticum; details: xylulose 2.5 mM, 20 mM MgCl2, 25 mM HEPES pH 7.0, 37 °C
Text: (§1) HPLC-RI of products on Xylulokinase (XK)

HPLC-RI of products [2] = substrate: Nc1nc2c(ncn2[C@@H]2O[C@H](COP(=O)(O)OP(=O)(O)OP(=O)(O)O)[C@@H](O)[C@H]2O)c(=O)[nH]1; assay: HPLC-RI of products; assay type: biochemical, Ruminiclostridium cellulolyticum; details: xylulose 2.5 mM, 20 mM MgCl2, 25 mM HEPES pH 7.0, 37 °C
Text: as §1

HPLC-RI of products [3] = substrate: O=C(CO)[C@@H](O)[C@H](O)CO; assay: HPLC-RI of products; assay type: biochemical, Ruminiclostridium cellulolyticum; details: GTP 10 mM, 20 mM MgCl2, 25 mM HEPES pH 7.0, 37 °C
Text: as §1

[4] = substrate: Nc1ncnc2c1ncn2[C@@H]1O[C@H](COP(=O)(O)OP(=O)(O)OP(=O)(O)O)[C@@H](O)[C@H]1O; assay: HPLC-RI, glucose consumption; assay type: biochemical, Escherichia coli; details: glucose 5 mM, 20 mM MgCl2, 25 mM HEPES pH 7.0, 37 °C
HPLC-RI of pyruvate [5] = substrate: Nc1ncnc2c1ncn2[C@@H]1O[C@H](COP(=O)(O)OP(=O)(O)O)[C@@H](O)[C@H]1O; assay: HPLC-RI of pyruvate; assay type: biochemical, Ruminiclostridium cellulolyticum; details: PEP 10 mM, no FBP, 20 mM MgCl2, 30 mM KCl, 25 mM HEPES pH 7.0, 37 °C, Hill fit, nH 1.41
Text: (§2) HPLC-RI of pyruvate on Pyruvate kinase (PK)

HPLC-RI of pyruvate [6] = substrate: Nc1nc2c(ncn2[C@@H]2O[C@H](COP(=O)(O)OP(=O)(O)O)[C@@H](O)[C@H]2O)c(=O)[nH]1; assay: HPLC-RI of pyruvate; assay type: biochemical, Ruminiclostridium cellulolyticum; details: PEP 10 mM, no FBP, 20 mM MgCl2, 30 mM KCl, 25 mM HEPES pH 7.0, 37 °C
Text: as §2

HPLC-RI of pyruvate [7] = substrate: C=C(OP(=O)(O)O)C(=O)O; assay: HPLC-RI of pyruvate; assay type: biochemical, Ruminiclostridium cellulolyticum; details: ADP 5 mM, no FBP, 20 mM MgCl2, 30 mM KCl, 25 mM HEPES pH 7.0, 37 °C, Hill fit, nH 1.32
Text: as §2

[8] = substrate: Nc1ncnc2c1ncn2[C@@H]1O[C@H](COP(=O)(O)OP(=O)(O)OP(=O)(O)O)[C@@H](O)[C@H]1O; assay: GAPDH-coupled NADH oxidation; assay type: biochemical, Ruminiclostridium cellulolyticum; details: reverse, 3-PG 4 mM, 0.3 mM NADH, 10 mM MgCl2, 50 mM phosphate pH 7.0, 15 mM cysteine, 37 °C
[9] = substrate: Nc1nc2c(ncn2[C@@H]2O[C@H](COP(=O)(O)OP(=O)(O)OP(=O)(O)O)[C@@H](O)[C@H]2O)c(=O)[nH]1; assay: GAPDH-coupled NADH oxidation; assay type: biochemical, Ruminiclostridium cellulolyticum; details: reverse, 3-PG 25 mM, 0.3 mM NADH, 10 mM MgCl2, 50 mM phosphate pH 7.0, 15 mM cysteine, 37 °C
purified protein [10] = substrate: Nc1ncnc2c1ncn2[C@@H]1O[C@H](COP(=O)(O)OP(=O)(O)O)[C@@H](O)[C@H]1O; assay: purified protein; assay type: biochemical, Ruminiclostridium cellulolyticum; details: forward, 3 mM glyceraldehyde-3-P, 1.1 mM NAD+, 10 mM MgCl2, 50 mM phosphate pH 7.0, 15 mM cysteine, 37 °C, 1,3-BPG concentration unknown, Hill fit, nH 4.03
purified protein [11] = substrate: Nc1nc2c(ncn2[C@@H]2O[C@H](COP(=O)(O)OP(=O)(O)O)[C@@H](O)[C@H]2O)c(=O)[nH]1; assay: purified protein; assay type: biochemical, Ruminiclostridium cellulolyticum; details: forward, 3 mM glyceraldehyde-3-P, 1.1 mM NAD+, 10 mM MgCl2, 50 mM phosphate pH 7.0, 15 mM cysteine, 37 °C, 1,3-BPG concentration unknown, Hill fit, nH 1.63
HPLC-RI of products [12] = substrate: Nc1ncnc2c1ncn2[C@@H]1O[C@H](COP(=O)(O)OP(=O)(O)O)[C@@H](O)[C@H]1O; assay: HPLC-RI of products; assay type: biochemical, Ruminiclostridium cellulolyticum; details: acetyl-P 5 mM, 20 mM MgCl2, 25 mM HEPES pH 7.0, 37 °C
Text: (§3) HPLC-RI of products on Acetate kinase (AK)

HPLC-RI of products [13] = substrate: Nc1nc2c(ncn2[C@@H]2O[C@H](COP(=O)(O)OP(=O)(O)O)[C@@H](O)[C@H]2O)c(=O)[nH]1; assay: HPLC-RI of products; assay type: biochemical, Ruminiclostridium cellulolyticum; details: acetyl-P 5 mM, 20 mM MgCl2, 25 mM HEPES pH 7.0, 37 °C
Text: as §3

HPLC-RI of products [14] = substrate: Nc1ncnc2c1ncn2[C@@H]1O[C@H](COP(=O)(O)OP(=O)(O)OP(=O)(O)O)[C@@H](O)[C@H]1O; assay: HPLC-RI of products; assay type: biochemical, Ruminiclostridium cellulolyticum; details: reverse reaction, acetate 10 mM, 20 mM MgCl2, 25 mM HEPES pH 7.0, 37 °C
Text: as §3

HPLC-RI of products [15] = substrate: CC(=O)OP(=O)(O)O; assay: HPLC-RI of products; assay type: biochemical, Ruminiclostridium cellulolyticum; details: ADP 10 mM, 20 mM MgCl2, 25 mM HEPES pH 7.0, 37 °C
Text: as §3

purified protein [16] = substrate: CC(=O)O; assay: purified protein; details: reverse reaction, ATP 10 mM, 20 mM MgCl2, 25 mM HEPES pH 7.0, 37 °C

B1: Xylulokinase (XK) (Ruminiclostridium cellulolyticum H10) (protein)
chain: MSFLIGIDLGTSGVKTVLFDEAGKPVASSTVEYPLYQPNLGWAEQDPEEWWKGTCESINNVMLKSGVDKREVKGIGLSGQMHGAVLLDKDDKVLRNAIIWCDQRSAAECDEITDLIGRERLIEITANPALTGFTASKIMWVKNNEPQIFEKIAKILLPKDYIRFRLTGEYATEVSDASGMQLMNIAKREWSIEVLDKLGLSTSMLGKMYESQEVTGKVTSSAADQTGLNAGTIVVGGGGDQAAGAVGNGIVKSGIVSSTIGTSGVVFAYTDKLTIDPLGRVHTFCHAVPNTYHVMGVTQGAGLSLKWFRDNFCMEEMMTSELSDIDVYKLLDAEAETIKPCSDGLVYLPYLMGERTPHLDPNAKGVFFGLTAKHTKPHFIRSIMEGVTFSLRDCLEIIKGMGVDVSEVRASGGGGKSGIWRQMQADVFGTNINRIRSDEGPALGVAILAGVGAGIYDSVPQACEEVIKVKDTLAPVEDRIKKYDDFYKLYTKLYKSLKDDFNQLSTILK
notes: full-length, C-terminal His tag (pET28a), E. coli BL21(DE3), Ni-NTA and anion exchange
Km (HPLC-RI of products [1]): 1180 ± 180 µM
kcat (HPLC-RI of products [1]): 6653 ± 281 iu/µmol
Km (HPLC-RI of products [2]): 120 ± 20 µM
kcat (HPLC-RI of products [2]): 6540 ± 177 iu/µmol
Km (HPLC-RI of products [3]): 300 ± 70 µM
kcat (HPLC-RI of products [3]): 8788 ± 375 iu/µmol

B2: E. coli glucokinase (GLK) (Escherichia coli K-12) (protein)
chain: MTKYALVGDVGGTNARLALCDIASGEISQAKTYSGLDYPSLEAVIRVYLEEHKVEVKDGCIAIACPITGDWVAMTNHTWAFSIAEMKKNLGFSHLEIINDFTAVSMAIPMLKKEHLIQFGGAEPVEGKPIAVYGAGTGLGVAHLVHVDKRWVSLPGEGGHVDFAPNSEEEAIILEILRAEIGHVSAERVLSGPGLVNLYRAIVKADNRLPENLKPKDITERALADSCTDCRRALSLFCVIMGRFGGNLALNLGTFGGVFIAGGIVPRFLEFFKASGFRAAFEDKGRFKEYVHDIPVYLIVHDNPGLLGSGAHLRQTLGHIL
notes: full-length, C-terminal His tag (pET22b+), E. coli BL21(DE3), Ni-NTA and anion exchange
Km [4]: 2470 ± 390 µM

B3: Pyruvate kinase (PK) (Ruminiclostridium cellulolyticum H10) (protein)
chain: MRRTKIICTLGPASDNEDILRKMMLGGMSLARMNFSHGTHEEHKKRADLVKKIREELNLPIPLLLDTKGPEIRTGKFKNDQAILKENNEFILVNEDILGDETKCTITYKELYKDVSRGSKILINDGLVELEVTEIKNKDIYCRVLNGGAVGNHKGINVPGAEIKLPSLTEQDIDDIKFGIKNDFDIIAASFVRKASDVVEIRKVLEKNGGKDILIIAKIENREGIKNFNDILKVSDGIMVARGDLGVEIPVEEVPIVQKNIIEKCYQNGKPVITATQMLDSMIRNPRPTRAEASDVANAIFDGTSCVMLSGETAAGKYPIETIEVMAKIAEKAEKSMDYWNRFATARTELDTSVTNAISHATCTTALDLKAAAIITVTQSGHTARMIARFRPACPIIATTANPKVQRQLNLSWGVMPYLVGIAKTTDDMFDNGVEKALESGLVKNGDLAVITAGMPAGISGTTNTLKVHIVGRVLVQGVGIGTSSVTGELCVAQNTKEAMDKFTDGNIIVAPFTDNSMLPVIKRASAIVVEEHGQSCHAATVGLALDIPVILGAENATKILKAGSVVTVDSERGLVIRCN
notes: as for B1
Km (HPLC-RI of pyruvate [5]): 1870 ± 140 µM
kcat (HPLC-RI of pyruvate [5]): 9508 ± 328 iu/µmol
Km (HPLC-RI of pyruvate [6]): 900 ± 140 µM
kcat (HPLC-RI of pyruvate [6]): 977 ± 48 iu/µmol
Km (HPLC-RI of pyruvate [7]): 1560 ± 20 µM
kcat (HPLC-RI of pyruvate [7]): 9212 ± 50 iu/µmol

B4: Phosphoglycerate kinase (PGK) (Ruminiclostridium cellulolyticum H10) (protein)
chain: MSMMNKKTIEDIDVAGKRVIVRVDFNVPLDENRKITDDKRIVGALPTIKYLVDKGAKTILVSHLGRPKEGFEDKFSMKPTAVRLGELLGKEIIMAKDVVGEDAKSKAAALKDGEVLMLENVRFHKEETKNDANFAKELASMAEIFVNDAFGTAHRAHASTAGLADYLPAVCGFLIKKEIEFMGKALANPARPFVAILGGAKVSDKIAVIENLIDKVDTLIIGGGMAYTFLKAKGYHIGNSICEEDKIDLAKTLMEKAEAKGVEIMLPIGSMVAQEFKNDTEIKYVPSDAMPDGWMGMDIGSLTIENFAKEIKKAKTVIWNGPMGVFEFPNFATGTKEIAKAVAESGALSIVGGGDSAAAVEQLGFADKITHISTGGGASLEFLEGKELPGIAVLMDKNPRKVIAAGNWKMNKTASEAVEFVNALKPAVADAKNEVVVGVPFVCLPGVVAAAKGSNIKVAAQNMHWEEKGAFTGEVSGPMLADLGVDYVIIGHSERREYFGETNEMINKKAHAIFKYGMTPIICCGETLTQREQGVTADHIRYQIKVALLDLTAEQVSKLVIAYEPIWAIGTGKTATNEQANEVCTIIRELVAELYGSEVAEHVRIQYGGSVNAKNATELFAMSDIDGGLVGGASLKVEDFSIIAKA
notes: full-length, C-terminal His tag (pET28a), E. coli BL21(DE3), Ni-NTA, anion exchange, gel filtration
Km [8]: 480 ± 70 µM
kcat [8]: kcat = 4256 ± 148 iu/umol
Km [9]: 4660 ± 1240 µM
kcat [9]: 2831 ± 348 iu/µmol
Km (purified protein [10]): 80 ± 2 µM
kcat (purified protein [10]): 733 ± 12 iu/µmol
Km (purified protein [11]): 135 ± 8 µM
kcat (purified protein [11]): 771 ± 20 iu/µmol

B5: Acetate kinase (AK) (Ruminiclostridium cellulolyticum H10) (protein)
chain: MKVLVINAGSSSLKYQLIDMKNETVLAKGLCDRIGIDNSFIKQSRGSEEAVILNKELKNHKDAIEAVISALTDDNMGVIKNMSEISAVGHRIVHGGEKFNSSVVIDENVMNAVRECIDVAPLHNPPNIIGIEACQQIMPNIPMVAVFDTTFHSSMPDYAYLYALPYELYEKYGIRKYGFHGTSHKYVAERASAMLDKSLNELKIITCHLGNGSSICAVNKGKSIDTSMGFTPLQGLAMGTRSGTIDPEVVTFLMEKENLDVKGVSKLLNKKSGVLGISGVSSDFRDLHAAADAGNSRAELAIEIFCYGVKKFIGEYIAVMNGVDAIVFTAGVGENNSVVRNMIISDMDFLGIKIDEEKNKLRGQEVDISTADAAVRTLVIPTNEELAIARETVRLVK
notes: as for B1
Km (HPLC-RI of products [12]): 1130 ± 210 µM
kcat (HPLC-RI of products [12]): 25,437 ± 1668 iu/µmol
Km (HPLC-RI of products [13]): 1470 ± 130 µM
kcat (HPLC-RI of products [13]): 35,365 ± 1,150 iu/µmol
Km (HPLC-RI of products [14]): 1470 ± 170 µM
kcat (HPLC-RI of products [14]): 16.68 ± 0.74 iu/µmol
Km (HPLC-RI of products [15]): 1490 ± 200 µM
kcat (HPLC-RI of products [15]): 25,112 ± 1755 iu/µmol
Km (purified protein [16]): 2370 ± 380 µM
kcat (purified protein [16]): kcat = 12.85 ± 0.85 iu/umol
